Assay: yeast display, Sf9 membrane polyspecificity reagent, FACS + sequencing; frameworks hold sequencing errors
How it was run: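 Synthetic nanobody libraries on Saccharomyces cerevisiae BJ5465 were galactose-induced for 36–48 hours, stained 1 hour at 4 °C with 10% biotinylated, detergent-solubilized Sf9 membrane reagent and enriched on streptavidin microbeads. FACS then separated cells into low and high (top ~1%) gates by anti-HA (expression) and streptavidin (reagent binding) fluorescence. Genes were colony-PCR amplified, MiSeq 2 × 250 sequenced and CDR-length filtered. A clone's polyreactivity label is that of its gate of origin.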

Sequence	polyreactivity (PSR sort gate)
QVQLVESGGGLVQAGGSLRISCAASGSTFYFNAMGWYRQAPGKERELVAGISSGGSTYYADSVKWRFTISRDNAKTTVYLQMNSLKPEDTAVYYCAATWLVERPFSYTEYGYWGQGTQVTVSS	low polyreactivity
QVQLVESGGGLVQAGGSLRLSCAASGSTFQRYAMGGYRQAPGKERQLVAAISSGGSTYYADSVKGRFTISRDNAKNTVYLQINSLKPEDTAVYYCAARIYVVWSSRVYWMYYWGQGTQVTVSS	high polyreactivity
QVQLVESGGGLVQAGGRLRLSCAASGITCYRYVMGWYRQAPGKERELVAAITSRGGSTSYADSVKGRFTISRDNAQNTVYLQMNSLKPEDTAVYYCAAVYRRDYDYWGQGTQVTVSS	high polyreactivity
QVQLVESGGGLVQAGGSLRLSCAASGRIFSYYAMGWYRQAPGKERELVARITSRGASTYYADSVKGRFTISRDNAKNTVYLQMNSLKPEDTAVYYCATDRYRIYPDYDYWGQGTQVTVSS	high polyreactivity
QVQLVESGGGLVQAGGSLRISCAASGRTFRWYAMGWYRQAPGKERELVAAISWNGGSTYYADSVKGRFTISRDNAKNTVYLQMNSLKPEDTAVYYCAVKAGPSRPYYSWGQGTQVTVSS	high polyreactivity
QVQLVESGGGLVQAGGSLRLSCAASGRIIGYYTMGWYSQAPGKERELVAAITSGGRTYYADSVKGRFTISRDNAKNTVYLQMNSLKPEDTAVYYCAADWYYRSDYWGQGTQVTVSS	low polyreactivity
QVQLEESGGGLVQAGGSLRLSCAASGSTFEYKAKGWYRQAPGKERELVASSTNYADSVKGRFTISRDNAKNTVYLQMNSLKPEDTAVYYCAREQGVNRNHDYWGQGTQVTVSS	low polyreactivity
QVQLVDSGGGLVQAGGSLRLSCASSGSTTVLYAKGWYRQAPGKEREMVAAISRSGGSTYYADSVKGRFTISRDNAKYTVYLQMNSLKPEDTAVYYCAARVPFSPYLRLFDYWGQGTQVTVSS	low polyreactivity
QVQLVESGGCLVQAGGSLRLCCAASGSTFDSNAMGSYRQAPGIERELVAAISSDGSTTYADSVKGRFTISRDNAMNTVYLQMNSLKPEDTAVYYCEYYYWGQGTQVSVSS	low polyreactivity
QVQLGESGGALVQAGGSLRLSCAASGSIYWYKDMGWYTEATGKEMELVAAINSGGDTNYADSVKGRFTISRDNAKNTVYLQMNSLKPEDTAVFYCAATLLSRFYLSNRRSAYNYWGQGTLVTVSS	high polyreactivity
QVQLVESGGVLVQAGGSLRLSCAASGFTFWDYAMGWYRHAPGKERELVAAISDNDGSTDYADSVKGRFTISRDNAKNTVYLQMNSLKPEDTAVYYCNAEIELPSKEGDYWGQGTQVTVSS	low polyreactivity
QVQLVESGGGLFQAGGSLRVSSAPSGITFYGYAMGWYRQAPGKERELVAAINRGGTGTYYADSVKGRFTISRYNAKNTVYLQMNSLTPEDTAVYYCNKAGYPLADPTAGKRQFDDWGQGTEVTVSS	low polyreactivity
QVHLVESGGCLVQAGGSLRLSCAASGYIIGINAMACYRQAPRKESELVPAISRSGGSTYYAESVKGRFTISRDNAKNTVYLQMNSLKPEDTAVYYCASDILRFYSDTYGTEYWGQGTQVTVSS	high polyreactivity
QVQLVESGGGLVQAGGSLRLSCAASGSTFGVYAMGWYRQAPGKERELVARITSGGSTYYADSVKGRFTITRDNAKKTVYLQRNSLKPEDTAVYYCAAVYRRTRSWKFDYWGQGTQVTVAS	high polyreactivity
QVQLQESCGGLVQAGGSLRLSCAASGTIITARFMGWYRQAPGKERELVATITDGGNNNHAESVKGRFTISRDNAKNTVYLQMNSLKPEDAAVYYCAAGEVDNDTLLYWGQGSQVTVSS	low polyreactivity
QVQLVESGGGLVQAGGSLRLSCAASGLTFKYYAMGWYRQAPGKERELVAAISWRGGSTYYADSVKGRFTISRDNAKNTVYLQMNSLKPEDTAVYYCAAPGNNVRNAPRKRDYWGQGTQVTVSS	high polyreactivity
HVQLVESGGGLVQAGGSLRISCAASGRIFSTYTMGWYRQAPGKERELVAAIRANCGSTYYADSVKGRFTISRDNAKNTVYLQMNSLKPEDTAVYYCAALYRRYPYHYDSWGQGTQVTVSS	high polyreactivity
QVQLVESGGGLVQAAGSLRLSCAASGRTFKVYAMGWYRQAPGKERELVAAITWRGGRTYYADSVKGRFTISSDNAKNTVYLQMNSLKPEDTAVYDCAADLYYLTHDYWGQGTQVTVSS	high polyreactivity
QVQLVESGGGLVQAGGSLRLSCAASGITFLKNAMGWYRQAPGKERELVAAISSSGGSTYYADSVKGRFTISRDNAKNTVYLQMNSLKPEDTAVYYCAALSVGKRYRYEYWGQGTQVTVSS	high polyreactivity
QVQLVESGGGLVQAGGSLRLSCAASGFTFVQYAMGWYRQAPGKERELVATISKSGGITYYADSVKGRFTISRDNAKNTVYLQMNSLKPEDNAVYYCAAAWYYSSRGFHATWGHDYWGQGTQVTVSS	low polyreactivity
QVQLVESGGGLVQAGGSLRLSCAASGSTFVVNAMGWYRQAPGKERELVAAISWSGASTYYADSVKGRFTISRDNAKNTVYLQMKSLIQEDTAVYYCAADYSHYFYYYPSFVKFDYWGQGTQVTVSS	high polyreactivity
QVQLVESGGGLVHAGGSLRLSCAASGLTFYRYAMGWYRQAPGKERELVAAIRSNVVTTYYADSVKGRFTISRDNAKNTVYLQMNSLKPEDTAVYYCAARFGRSAQPGYDYWGQGTQVTVSS	high polyreactivity

Sequence	polyreactivity (PSR sort gate)
QVQLVESGGGLVQAGGSLRLSCAASGSILGGNAMGWYRQAPGKERELVAANTFSGGGTYYADSVKGRFTISRDNAKNTVYLQMKSLKPEDTAVYYCNADYKSTVFRYSGSRNYWGQGTQVTVSS	low polyreactivity
QVQLVESGGGLVQAGGSLRLSCAASGSTFSTYTMGWYRQAPGKERELVASISGRGGRTYYADSVKGRFTISRDNAKNTVYLQMNSMKPEDTAVYYCAARYWTLPWYQRGDYWGQGTQVTVSS	high polyreactivity
QVQLVESVGGLVQAGGSLRLTCVASGRIFLTYAMGWYRQAPGKERELVAAISYSGASTYYADSVKGRFTISRDNAKNTVYLQMNSLKPEDTAVYYCATERVGTPRMNYWGQGTQVTVSS	high polyreactivity
QVQLEESGGGLVQAGGSLRLSCAASGFTFSLYAMGWYRQAPGKERELVAAISTSGGSTYYADSVKGRFTISRDNAKNTVYLQMNSLKPEDTAVYYCAATTVYSRAYYYVTYWYGYWGQGTQVTVSS	low polyreactivity
QVQLVESGGGLVQAGGSLRLSCAASGRIFWRYAMGWYRQAPGKERELVAAITWSVGSTYYADSVKGRFTISRDNAKNTVYLLMNSLKPEDTAVYYCATDVKNVRYRYRYDYWGQGTQVTVSS	low polyreactivity
QVQLVESGGGLVQAGGSLRLSCAASGSTFYTYAMGWYRQAPGKERELVAAISYRGGSTYYADSVKGRFTISRDNAKNTVYLQMNSLKPEDTSVYYCKVDGVVVGTKRGGYDYWGQGTQVTVSS	low polyreactivity
QVQLVESGGGLVQEGGSLRLSCAASGTIFGIYAMGWYRKAPGKERELVAAISKSGGGTYYADSVKGRFTISRDNSKNTVFLQMNSLKPEDTAVNYCNVYVSKYRRFEYWGQGTQVTVSS	high polyreactivity
QVQLVESGGGLVQAGGSHRLSCAASGFIFGINVMGWYRQAPGKERELVAAISGSGSSTYYADSVKGRFTISRDNAKNTVYLQMNSLKPEDTAVYYCAARSVSTLRFTSRKLRYDYWGQGTQVTVSS	high polyreactivity
QVQLVESGGGLVQAGGSLRLSCDASGSIFGPYARGWYRQEPGKERELVAAITWTGGRTYYADSVKGRFTISRDNAKNTVYLQMNSLQPEDTAVYYFAADYSPSTWDLYYTLYYYWGQGTQVTVSS	low polyreactivity
QVPLVESGGGLVQAGGSLRLSCAASGFTFYAYTMGWYRQAPGKERELVAAINKSGSSKYYADSVKGRFTISRDNAKNTVYLQMNSLKPEDTAVYFCNAYYRKVLGYDKMDYWGQGTQVTVSS	high polyreactivity
QVQLVEYQGGLVQAGGSLRLSSAASGIIFDQYAMGWYRQAPGKEREVVAAITYSGGCTYYADSVNGRFTISRDNEKNTVYLQMNSLKPEDTAVYYCADLFGYSLYDAQYDYWGQGTQVTVSS	low polyreactivity
QVQLVESGGGLVQAGGSLRLSCAASGFISGKYAMGWNRQAPGKERELVATIRSGGSTNYADSVKGRFTISRDNAKNTVYLQMNSLKPEDTAVYYCAKRRGSRGVIYDYWGQGTQVTVSS	high polyreactivity
QVQLVESGGGLVQAGGSLRLSCAASGFNFADNAMGWYRQAPGKEREFVAAISRSGGTTYYADSVKGRFTISRDNAKNTVYLQMNSLKPEDTAVYYCATRLTSYPDYDYWGQGTQVTLSS	low polyreactivity
QVQLVESGGGLVQAGGSLRLSCAASGRTFVKYAMGWYRQAPGKERELVAAISWSGGSTYYADSVKGRFTISRDNAKNTVYLQMNSLKPEDTAVYYCNTAQRYRVYRYDYWGQGTQVTVSS	high polyreactivity
QVQLVESGGGLVQAGGSLSLICAASGSTFRYYTMGWYRQAPGKERELVAVISRSDDSTYADSVKGRFTISRDNAKNTVYLQMNSLKPVDTAVYYCAAAGGLFFRSTVPRGDFWGQGTQVTVSS	low polyreactivity
QVQLVESGGGLLQAGGSLRISCAASGSILFLYDMGWYRQAPGKERELVAAIRWSGGGTYYADSVKGRFTISRDNAKNTVYLQMNSLKPEDTAVYYCAAAARYPFDVTYYYWGQGTQVTVSS	high polyreactivity
QVQLVESGGGLVQAGGSLRLSCAASGSTFYWYAMGWYRQAPGKERQLVAAITRNAGSTYYADTVKGRFTISRDNAKNTVYVQMNSLKPEDTAVSYCAADGARSAFLLAYYYWGQGTQVTGSS	low polyreactivity
QVQLVESGGGLVQAGGSLRLSCAASGSIFSKYAMGWYRQAPGKERELVAAISGSGGDTYYADSVKGRFTISRDNAKNTVYLQMNSLKPEDTAVYFCAAEDQQNGYDYWGQGTQVTVSS	low polyreactivity
QDQLVESGGGLVQAGGTLRLSCAASGYTFDTYALGWYRQAPGKERELVAAISYTGGSTYYADSVKGRFTISRDNAKNTVYLQMNSLKPEDTAVYYCAADFNGYPGGDLYVGYDYWGLGTQVTVSS	low polyreactivity
QVQLVESGGGLVQAGGSLRLSCAASGRIFVDYAMGWYRQAPGKERELVAAITRSGDRTYYADSVKGRFTISRDNAKNTVYLQMNSLKPEDTAVYYCATVYPGYVWGQGTQVTVSS	low polyreactivity
QVQLVESGGGLVQAGGSLRLSCAASGSTFFSYTMGWSRQAPGKEWELVAAITWSAGTTYYADSVKGRFTISRDNAKNTVYLQMNSLKPEDTAVYYCNADLSRYPTAVRMDYWGQGTQVTVSS	low polyreactivity

— the nanobody polyreactivity screen of Harvey et al. (2022)
